US20240270840A1 (NECTIN THERAPEUTICS, published 2024)

B1: VH0 N28S Vk0 (antibody, human IgG1, V domains shown)
VH: QVQLQQPGAELVKPGTSVKLSCKASGYSFTSYWINWVKLRPGQGLEWIGDIYPGSYIPNYNEKFKNKATLTVDTSSSTAYMQLTSLASEDSALYYCAGGYFDVWGAGTTVTVSS
VL: DIVMTQSPSSLSVSAGEKVTMSCKSSQSLLSSGNQKNYLAWYQQKPGQPPKLLIYGASTRESGVPDRFTGSGSGTDFTLTISSVQAEDLAVYYCQNDHSYPYTFGGGTKLEIK
notes: Variant of VH0K0
B2: VH11K1 as tested in Table 4 (humanized scFv variant) (scFv, V domains shown)
VH: QVQLVQSGAEVKKPGSSVKVSCKASGYTFTSYWINWVRQAPGQGLEWIGDIYPGSYIPNYNEKFKNRATLTVDTSASTAYMELSSLRSEDTAVYYCAGGYFDVWGQGTTVTVSS
VL: DIVMTQSPDSLSVSLGERATINCKSSQSLLSSGNQKNYLAWYQQKPGQPPKLLIYGASTRESGVPDRFTGSGSGTDFTLTISSLQAEDVAVYYCQNDHSYPYTFGQGTKLEIK
notes: Format as for m33
B3: VH0 N28D Vk0 (antibody, human IgG1, V domains shown)
VH: QVQLQQPGAELVKPGTSVKLSCKASGYDFTSYWINWVKLRPGQGLEWIGDIYPGSYIPNYNEKFKNKATLTVDTSSSTAYMQLTSLASEDSALYYCAGGYFDVWGAGTTVTVSS
VL: DIVMTQSPSSLSVSAGEKVTMSCKSSQSLLSSGNQKNYLAWYQQKPGQPPKLLIYGASTRESGVPDRFTGSGSGTDFTLTISSVQAEDLAVYYCQNDHSYPYTFGGGTKLEIK
notes: Variant of VH0K0 without the N-linked glycosylation motif of heavy chain CDR1
B4: VH0 N28Q Vk0 (antibody, human IgG1, V domains shown)
VH: QVQLQQPGAELVKPGTSVKLSCKASGYQFTSYWINWVKLRPGQGLEWIGDIYPGSYIPNYNEKFKNKATLTVDTSSSTAYMQLTSLASEDSALYYCAGGYFDVWGAGTTVTVSS
VL: DIVMTQSPSSLSVSAGEKVTMSCKSSQSLLSSGNQKNYLAWYQQKPGQPPKLLIYGASTRESGVPDRFTGSGSGTDFTLTISSVQAEDLAVYYCQNDHSYPYTFGGGTKLEIK
notes: Variant of VH0K0
B5: VH10K2 as tested in Table 4 (humanized scFv variant) (scFv, V domains shown)
VH: QVQLVQSGAEVKKPGSSVKVSCKASGYTFTSYWINWVRQAPGQGLEWIGDIYPGSYIPNYNEKFKNRATLTVDTSASTAYMELSSLASEDTALYYCAGGYFDVWGQGTTVTVSS
VL: DIVMTQSPDSLAVSLGERATINCKSSQSLLSSGNQKNYLAWYQQKPGQPPKLLIYGASTRESGVPDRFTGSGSGTDFTLTISSLQAEDVAVYYCQNDHSYPYTFGQGTKLEIK
B6: VH10K3 as tested in Table 4 (humanized scFv variant) (scFv, V domains shown)
VH: QVQLVQSGAEVKKPGSSVKVSCKASGYTFTSYWINWVRQAPGQGLEWIGDIYPGSYIPNYNEKFKNRATLTVDTSASTAYMELSSLASEDTALYYCAGGYFDVWGQGTTVTVSS
VL: DIVMTQSPDSLAVSLGERATINCKSSQSLLSSGNQKNYLAWYQQKPGQPPKLLIYGASTRESGVPDRFSGSGSGTDFTLTISSLQAEDVAVYYCQNDHSYPYTFGQGTKLEIK
notes: Format as for m33
B7: VH0 T30A Vk0 (antibody, human IgG1, V domains shown)
VH: QVQLQQPGAELVKPGTSVKLSCKASGYNFASYWINWVKLRPGQGLEWIGDIYPGSYIPNYNEKFKNKATLTVDTSSSTAYMQLTSLASEDSALYYCAGGYFDVWGAGTTVTVSS
VL: DIVMTQSPSSLSVSAGEKVTMSCKSSQSLLSSGNQKNYLAWYQQKPGQPPKLLIYGASTRESGVPDRFTGSGSGTDFTLTISSVQAEDLAVYYCQNDHSYPYTFGGGTKLEIK
notes: Variant of VH0K0

Columns and labels:
[1] = biological target: T1, Human CD112R (PVRIG) (human, UniProt Q6DKI7 41-171, limits assumed); assay: affinity of glycosylation-motif variants (Table 2; method not named there)
T1 sequence (looked up): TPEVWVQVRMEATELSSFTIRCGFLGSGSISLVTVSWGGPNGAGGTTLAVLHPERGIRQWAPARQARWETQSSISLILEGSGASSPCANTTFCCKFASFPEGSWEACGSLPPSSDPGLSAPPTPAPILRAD

[2] = biological target: T1, Human CD112R (PVRIG); assay: binding kinetics to human CD112R (Table 4; scFv variants by paragraph 288)

Binder | Kd [1] [nM] | Relative Kd (against VH0Vk0) [1] | Kd [2] [nM] | Relative Kd (against VH0K0) [2] | koff [2] [s⁻¹] | kon [2] [M⁻¹ s⁻¹]
B1 | 0.116 | 0.66 |  |  |  | 
B2 |  |  | 0.165 | 0.54 | 0.000101 | 630000
B3 | 0.122 | 0.73 |  |  |  | 
B4 | 0.116 | 0.69 |  |  |  | 
B5 |  |  | 0.214 | 0.7 | 0.000133 | 623000
B6 |  |  | 0.197 | 0.64 | 0.000107 | 545000
B7 | 0.106 | 0.63 |  |  |  | 
